{
  "source": "patent US20160122418A1",
  "key": {"[1]": {"target": "F protein of RSV reference strain RSV-B (ATCC VR 1580) (RSV-B (ATCC VR 1580)) (UniProt P13843)", "sequence (P13843 26-574)": "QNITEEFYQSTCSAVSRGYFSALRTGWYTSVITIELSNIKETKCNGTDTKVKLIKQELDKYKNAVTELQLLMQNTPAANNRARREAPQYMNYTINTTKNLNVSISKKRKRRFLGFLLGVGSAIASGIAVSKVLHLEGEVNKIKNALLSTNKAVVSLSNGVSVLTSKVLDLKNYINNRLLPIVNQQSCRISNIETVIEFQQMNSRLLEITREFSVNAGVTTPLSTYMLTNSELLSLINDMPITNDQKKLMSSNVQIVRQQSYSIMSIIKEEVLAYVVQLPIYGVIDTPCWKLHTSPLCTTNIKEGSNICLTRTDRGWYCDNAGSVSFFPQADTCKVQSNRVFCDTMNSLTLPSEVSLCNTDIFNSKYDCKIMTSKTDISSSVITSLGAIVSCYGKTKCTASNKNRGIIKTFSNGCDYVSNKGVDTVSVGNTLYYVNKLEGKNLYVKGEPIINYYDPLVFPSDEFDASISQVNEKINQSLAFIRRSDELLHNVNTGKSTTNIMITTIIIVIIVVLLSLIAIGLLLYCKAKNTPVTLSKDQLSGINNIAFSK", "assay": "cell-based or functional assay"}, "[2]": {"target": "F protein of RSV reference strain RSV-A Long (ATCC VR-26) (RSV-A Long (ATCC VR-26)) (UniProt P12568)", "sequence (P12568 26-574)": "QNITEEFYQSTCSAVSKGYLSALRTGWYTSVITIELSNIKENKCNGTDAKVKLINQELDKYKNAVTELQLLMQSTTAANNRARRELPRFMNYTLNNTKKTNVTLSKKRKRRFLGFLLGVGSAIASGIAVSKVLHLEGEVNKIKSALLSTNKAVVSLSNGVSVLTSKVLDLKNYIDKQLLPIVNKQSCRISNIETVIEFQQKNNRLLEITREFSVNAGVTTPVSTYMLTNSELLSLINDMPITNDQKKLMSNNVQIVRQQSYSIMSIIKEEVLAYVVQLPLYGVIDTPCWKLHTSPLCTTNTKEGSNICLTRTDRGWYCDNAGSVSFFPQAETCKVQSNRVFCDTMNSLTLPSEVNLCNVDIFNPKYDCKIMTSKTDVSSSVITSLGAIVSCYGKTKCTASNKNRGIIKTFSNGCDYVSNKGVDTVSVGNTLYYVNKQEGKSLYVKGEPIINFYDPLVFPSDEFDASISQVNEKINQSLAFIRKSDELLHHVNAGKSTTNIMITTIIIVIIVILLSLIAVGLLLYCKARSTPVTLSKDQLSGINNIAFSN", "assay": "cell-based or functional assay"}, "[3]": {"target": "F protein on intact RSV particles (Example 10, strain or isolate not stated) (RSV, strain not stated)", "assay": "competition ELISA; RSV particles pre-incubated with control mAb at 20 µg/mL (the reference); competitor (coating mAb): palivizumab"}, "[4]": {"target": "F protein on intact RSV particles (Example 10, strain or isolate not stated) (RSV, strain not stated)", "assay": "competition ELISA; RSV particles pre-incubated with control mAb at 20 µg/mL (the reference); competitor (coating mAb): AR201"}},
  "data": [
    {"substance": "palivizumab (antibody)", "values": [
      {"measurement": "Estimated half-maximal effective antibody concentration (ng/mL), plaque neutralization on Vero cells", "setting": "[1]", "value": 200, "unit": "ng/mL"},
      {"measurement": "Estimated half-maximal effective antibody concentration (ng/mL), plaque neutralization on Vero cells", "setting": "[2]", "value": 100, "unit": "ng/mL"}
    ]},
    {"substance": "unrelated fully human monoclonal IgG1 antibody (control)", "values": [
      {"measurement": "Estimated half-maximal effective antibody concentration (ng/mL), plaque neutralization on Vero cells", "setting": "[1]", "value": "> 1000", "unit": "ng/mL"},
      {"measurement": "Estimated half-maximal effective antibody concentration (ng/mL), plaque neutralization on Vero cells", "setting": "[2]", "value": "> 1000", "unit": "ng/mL"},
      {"measurement": "% binding of RSV to the coating mAb relative to control IgG", "setting": "[3]", "value": 100, "unit": "%"},
      {"measurement": "% binding of RSV to the coating mAb relative to control IgG", "setting": "[4]", "value": 100, "unit": "%"}
    ]}
  ]
}
